Measured values reported in the supplement of paper PMC7877785.
± gives the uncertainty stated by the source.

Experiment: self-splicing fitness, log relative to wild type (ln ratio); higher = more splicing; Tetrahymena group I intron in knt gene, E. coli kanamycin selection, DiMSum; sequences stand for … in CUCUCU…GGAGGGAAAAGUUAUCAGGCAUGCACCUGGUAGCUAGUCUUUAAACCAAUAGAUUGCAUCGGUUUAAAAGGCAAGACCGUCAAAUUGCGGGAAAGGGGUCAACAGCCGUUCAGUACCAAGUCUCAGGGGAAACUUUGAGAUGGCCUUGCAAAGGGUAUGGUAAUAAGCUGACGGACAUGGUCCUAACCACGCAGCCAAGUCCUAAGUCAACAGAUCUUCUGUUGAUAUGGAUGCAGUUCACAGACUAAAUGUCGGUCGGGGAAGAUGUAUUCUUCUCAUAAGAUAUAGUCGGACCUCUCCUUAAUGGGAGCUAGCGGAUGAAGUGAUGCAACACUGGAGCCGCUGGGAACUAAUUUGUAUGCGAAAGUAUAUUGAUUAGUUUUGGAGUACUCGUGGUCG
How it was run: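 Pooled colonies went to amplicon sequencing on an Illumina HiSeq 2500 after six replicate transformations. The plates were LB agar with 100 μg/mL carbenicillin, 50 μM IPTG and 0.2% rhamnose, with or without 25 μg/mL kanamycin, incubated overnight at 37°C or 30°C. The E. coli BL21(DE3) library had all eight P1ex-region intron nucleotides randomised, the intron placed in the knt kanamycin-resistance gene on pET-22b(+). DiMSum fitness is the error-weighted combination of replicate fold changes, kanamycin against none, normalised to wild type.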

Sequence	self-splicing fitness (ln) (30 °C)	self-splicing fitness (ln) (37 °C)
UACAAGCAAUAUUACGUAUC	-3.94 ± 0.24	-2.69 ± 0.21
UACAAGCAAUAUUACGUGAA	-2.42 ± 0.078	-1.7 ± 0.1
UACAAGCAAUAUUACGUGCC	-2.49 ± 0.15	-1.53 ± 0.14
UACAAGCAAUAUUACGUUGG	-3.19 ± 0.12	-1.41 ± 0.1
UACCAGCAAUAUUACGAACA	-0.482 ± 0.096	-0.258 ± 0.12
UACCAGCAAUAUUACGAACG	-0.468 ± 0.063	-0.562 ± 0.07
UACCAGCAAUAUUACGAACU	-2.26 ± 0.1	-0.819 ± 0.11
UACCAGCAAUAUUACGAAUA	-0.776 ± 0.086	0.199 ± 0.093
UACCAGCAAUAUUACGACCA	-0.314 ± 0.081	0.106 ± 0.1
UACCAGCAAUAUUACGACCG	-0.151 ± 0.067	0.099 ± 0.095
UACCAGCAAUAUUACGACCU	-2.1 ± 0.17	-1.57 ± 0.17
UACCAGCAAUAUUACGACGU	-2.11 ± 0.082	-0.692 ± 0.089
UACCAGCAAUAUUACGAGCC	-4.51 ± 0.33	-2.07 ± 0.32
UACCAGCAAUAUUACGAGCU	-3.29 ± 0.21	-2.7 ± 0.24
UACCAGCAAUAUUACGCAAC	-2.85 ± 0.3	-2.19 ± 0.27
UACCAGCAAUAUUACGCAGG	-3.68 ± 0.21	-2.37 ± 0.27
UACCAGCAAUAUUACGCCCC	-2.68 ± 0.5	-0.87 ± 0.4
UACCAGCAAUAUUACGCCGC	-2.89 ± 0.38	-2.37 ± 0.35
UACCAGCAAUAUUACGCCUA	0.00559 ± 0.047	0.659 ± 0.065
UACCAGCAAUAUUACGCGCA	0.0526 ± 0.065	-0.42 ± 0.08
UACCAGCAAUAUUACGCGUU	-1.64 ± 0.07	-0.917 ± 0.086
UACCAGCAAUAUUACGGAUA	-1.12 ± 0.077	-0.394 ± 0.078
UACCAGCAAUAUUACGGAUU	-0.984 ± 0.071	-0.93 ± 0.077
UACCAGCAAUAUUACGGCGG	-1.07 ± 0.058	-0.549 ± 0.081

Sequence	self-splicing fitness (ln) (30 °C)	self-splicing fitness (ln) (37 °C)
UACCAGCAAUAUUACGGCUA	0.185 ± 0.066	0.554 ± 0.089
UACCAGCAAUAUUACGGUUA	-0.306 ± 0.063	0.23 ± 0.076
UACCAGCAAUAUUACGUGCG	-0.811 ± 0.044	-0.367 ± 0.061
UACCAGCAAUAUUACGUUAU	-2.97 ± 0.12	-2.26 ± 0.14
UACGAGCAAUAUUACGAGAG	-3.93 ± 0.28	-2.8 ± 0.22
UACGAGCAAUAUUACGAUAC	-3.5 ± 0.19	-1.61 ± 0.13
UACGAGCAAUAUUACGCCCU	-3.96 ± 0.47	–
UACGAGCAAUAUUACGCCUG	-1.65 ± 0.1	-0.887 ± 0.14
UACGAGCAAUAUUACGCUUA	-1.96 ± 0.25	-0.594 ± 0.22
UACGAGCAAUAUUACGGAAA	–	-1.29 ± 0.32
UACGAGCAAUAUUACGGAUC	-3.56 ± 0.4	-2.63 ± 0.37
UACGAGCAAUAUUACGGCUU	-3.48 ± 0.21	-1.84 ± 0.16
UACGAGCAAUAUUACGGGCG	-0.999 ± 0.12	-0.902 ± 0.14
UACGAGCAAUAUUACGGGUG	-1.88 ± 0.074	-0.725 ± 0.087
UACGAGCAAUAUUACGGUGC	-3.46 ± 0.4	-2.43 ± 0.48
UACGAGCAAUAUUACGGUUU	-3.06 ± 0.17	-2.32 ± 0.18
UACGAGCAAUAUUACGUCAG	-3.08 ± 0.34	-3.01 ± 0.36
UACGAGCAAUAUUACGUCGA	-2.65 ± 0.42	-1.45 ± 0.25
UACGAGCAAUAUUACGUGAA	-3.05 ± 0.2	–
UACGAGCAAUAUUACGUGGA	-3.55 ± 0.23	-1.98 ± 0.19
UACUAGCAAUAUUACGAAGC	-2.06 ± 0.38	-3.04 ± 0.43
UACUAGCAAUAUUACGACGC	-2.01 ± 0.25	0.0923 ± 0.18
UACUAGCAAUAUUACGACGG	-0.517 ± 0.12	-0.301 ± 0.15
UACUAGCAAUAUUACGACGU	-2.22 ± 0.1	-1.29 ± 0.12
